Reference: US20100184663A1 (UNIVERSITY OF UTAH RESEARCH FOUNDATION, published 2010)
Like-named read-outs stand apart in the source and are kept apart here. Bridge positions count the residues as written; N and C are the ends. Square brackets hold non-standard residues; d marks the D form. Ends that are not written are not given here. I, II: the chains in the order shown.

B1: C5C(PIE7-GK)3 (peptide)
peptide 1: G[dA][dC][dD][dY][dP][dE][dW][dQ][dW][dL][dC][dA][dA]G[dK]
peptide 2: G[dA][dC][dD][dY][dP][dE][dW][dQ][dW][dL][dC][dA][dA]G[dK][dK]
modifications: disulfide I:3-I:12, II:3-II:12 (inferred); also: trimer: two chain 1 copies joined via C-terminal Lys by PEG5 spacers to the C-terminal Lys of central chain 2
B2: PEG-(PIE7)2 (peptide)
peptide: Ac-[dK]G[dA][dC][dD][dY][dP][dE][dW][dQ][dW][dL][dC][dA][dA]-NH2
modifications: disulfide 4-13 (inferred); also: dimer: N-terminal Lys of both peptides joined by Bis-dPEG9 NHS ester crosslinker
B3: PEG-(PIE2-AAA)2 (peptide)
peptide: Ac-[dK]G[dA][dC][dD][dY][dP][dE][dW][dR][dW][dL][dC][dA][dA][dA]-NH2
modifications: disulfide 4-13 (inferred); also: dimer: N-terminal Lys of both peptides joined by bis(NHS-ester)PEG crosslinker

What was measured:
Test in all cases: cell-based or functional assay
[1] = target: HIV-1 gp41 (JRFL strain) (HIV-1 JRFL)
[2] = target: HIV-1 gp41 (JRFL strain) (HIV-1 JRFL); remark: listed apart in the source
[3] = target: T1, HIV-1 gp41 (HXB2 strain) (HIV-1 HXB2, UniProt P04578 512-856)
[4] = target: T1, HIV-1 gp41 (HXB2 strain); remark: listed apart in the source
[5] = target: T1, HIV-1 gp41 (HXB2 strain); remark: listed apart in the source

Row | Binder | IC50 (JRFL), pseudovirion entry [2] [nM] | IC50 (HXB2), pseudovirion entry [3] [nM] | IC50 (HXB2), single-cycle viral infectivity assay [5] [nM] | fold improvement of IC50 over the corresponding monomer [4] [fold] | further results
1 | B1 | 6.73 | 0.13 | – | – | fold difference in potency against JRFL between C5C-PIE7-trimer and N9N-PIE7-trimer [1]: ~35 fold
2 | Ac-[dK][dK]G[dA][dC][dD][dY][dP][dE][dW][dR][dW][dL][dC][dA][dA]-NH2 (disulfide 5-14 (inferred)) [2K-PIE2] | – | – | 2570 | – | fold decrease in fold potency against PIE2, viral entry (HXB2) [4]: ~2 fold
3 | B2 | 2300 | 1.9 | 1.9 | ~325 | –
4 | B3 | – | – | – | ~70 | IC50 (HXB2), single-cycle viral infectivity assay [4]: 21 nM
5 | Ac-KG[dA][dC][dD][dY][dP][dE][dW][dQ][dW][dL][dC][dA][dA]-NH2 (disulfide 4-13 (inferred); not fully specified (residue 1)) [PEG-PIE7] | – | – | 940 | – | fold reduction in potency against unmodified PIE7, viral entry (HXB2) [4]: ~1.5 fold
6 | Ac-[dK]G[dA][dC][dD][dY][dP][dE][dW][dQ][dW][dL][dC][dA][dA]-NH2 (disulfide 4-13 (inferred)) [PIE7] | 24000 | 620 | 620 | – | IC50 (JRFL), viral entry [1]: 24400 nM; fold reduction in potency against JRFL compared with HXB2 [1]: ~40 fold; fold potency against D10-p5, viral entry (HXB2) [4]: ~15 fold
